# In PMC11449360:
# Target: Recombinant full-length MMTV Gag containing hexa-histidine tag at the C-terminus (Pr77^Gag) (mouse mammary tumor virus (MMTV))
# Test: dynamic light scattering; purified Pr77^Gag-His6 alone in storage buffer (50 mM Tris-HCl pH 8.0, 1 M NaCl); the hydrodynamic radius (about 6.00 nm) from volume and number distributions is read as the oligomer's size
substance,measurement,value
Recombinant full-length MMTV Gag containing hexa-histidine tag at the C-terminus (Pr77^Gag) (natural protein),stoichiometry N,3
